Assay results reported in patent EP4624486A1 (Guangdong Raynovent Biotech Co., Ltd., dated 2025).
Bridge positions count the residues as written; N and C are the ends. Square brackets hold non-standard residues; d marks the D form. Ends that are not written are not given here. αMeF = C[C@](N)(Cc1ccccc1)C(=O)O; αMeL = CC(C)C[C@](C)(N)C(=O)O; Aib = CC(C)(N)C(=O)O

T1: GIP receptor (GIPR) (UniProt P48546 22-466, limits assumed)
T1 sequence (looked up): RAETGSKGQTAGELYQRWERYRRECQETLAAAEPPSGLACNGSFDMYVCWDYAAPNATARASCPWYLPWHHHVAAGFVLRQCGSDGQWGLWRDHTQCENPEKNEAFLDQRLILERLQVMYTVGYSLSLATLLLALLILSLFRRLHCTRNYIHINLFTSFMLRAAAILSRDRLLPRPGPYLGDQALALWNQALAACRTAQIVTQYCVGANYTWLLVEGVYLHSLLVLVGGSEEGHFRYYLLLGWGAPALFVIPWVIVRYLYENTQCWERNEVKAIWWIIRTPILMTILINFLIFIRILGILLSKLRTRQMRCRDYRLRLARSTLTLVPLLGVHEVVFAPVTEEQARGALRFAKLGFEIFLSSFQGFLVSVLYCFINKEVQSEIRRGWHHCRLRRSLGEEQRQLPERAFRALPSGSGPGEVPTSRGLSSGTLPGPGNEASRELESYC


Key:
Test in all cases: cell-based or functional assay
GCG receptor (GCGR) [1] = molecular target: GCG receptor (GCGR) (UniProt P47871)
GIP receptor (GIPR) [2] = molecular target: GIP receptor (GIPR) (UniProt P48546)
GLP-1 receptor (GLP-1R) [3] = molecular target: GLP-1 receptor (GLP-1R) (UniProt P43220)
GLP-1 receptor (GLP-1R) [4] = molecular target: GLP-1 receptor (GLP-1R) (UniProt P43220 24-463, limits assumed)
GIP receptor (GIPR) [5] = molecular target: T1, GIP receptor (GIPR)
GCG receptor (GCGR) [6] = molecular target: GCG receptor (GCGR) (UniProt P47871 26-477, limits assumed)
Sequence of GCG receptor (GCGR) (UniProt P47871 26-477, limits assumed) (P47871 26-477 limits assumed): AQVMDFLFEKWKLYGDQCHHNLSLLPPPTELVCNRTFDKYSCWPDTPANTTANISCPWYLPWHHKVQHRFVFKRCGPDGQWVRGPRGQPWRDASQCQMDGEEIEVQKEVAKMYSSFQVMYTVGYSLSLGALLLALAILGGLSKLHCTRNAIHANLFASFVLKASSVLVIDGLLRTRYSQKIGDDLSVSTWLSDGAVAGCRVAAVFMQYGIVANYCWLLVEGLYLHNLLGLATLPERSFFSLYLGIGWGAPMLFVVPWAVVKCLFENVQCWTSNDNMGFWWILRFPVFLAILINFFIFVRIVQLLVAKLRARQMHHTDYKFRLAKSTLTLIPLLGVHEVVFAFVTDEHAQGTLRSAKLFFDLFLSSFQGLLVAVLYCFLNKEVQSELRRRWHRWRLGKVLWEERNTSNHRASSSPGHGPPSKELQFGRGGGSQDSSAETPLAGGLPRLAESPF

Sequence of GLP-1 receptor (GLP-1R) (UniProt P43220) (P43220 24-463 limits assumed): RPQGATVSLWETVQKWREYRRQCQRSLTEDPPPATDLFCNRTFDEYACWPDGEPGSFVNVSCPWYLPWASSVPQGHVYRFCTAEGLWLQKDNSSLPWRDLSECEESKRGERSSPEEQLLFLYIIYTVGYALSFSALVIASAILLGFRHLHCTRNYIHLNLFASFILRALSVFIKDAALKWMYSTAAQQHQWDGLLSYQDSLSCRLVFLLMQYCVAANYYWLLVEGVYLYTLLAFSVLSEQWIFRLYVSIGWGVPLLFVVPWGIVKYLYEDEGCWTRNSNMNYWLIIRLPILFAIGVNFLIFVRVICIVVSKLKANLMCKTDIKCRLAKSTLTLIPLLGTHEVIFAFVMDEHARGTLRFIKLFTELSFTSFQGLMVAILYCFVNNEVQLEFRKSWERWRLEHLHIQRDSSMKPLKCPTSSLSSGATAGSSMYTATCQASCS
Sequence of GCG receptor (GCGR) (UniProt P47871) (P47871 26-477 limits assumed): as the sequence (P47871 26-477 limits assumed) above

Row | Molecule | GCG EC50 (nM); cAMP, agonistic activity (GCG receptor (GCGR) [1]) | GIP-1 EC50 (nM); cAMP, agonistic activity (GIP receptor (GIPR) [2]) | GLP-1 EC50 (nM); cAMP, agonistic activity (GLP-1 receptor (GLP-1R) [3]) | GLP-1 EC50 (nM); cAMP, agonistic activity (GLP-1 receptor (GLP-1R) [4]) | GIP-1 EC50 (nM); cAMP, agonistic activity (GIP receptor (GIPR) [5]) | GCG EC50 (nM); cAMP, agonistic activity (GCG receptor (GCGR) [6])
1 | LY3437943 (peptide) | 0.031 nM | 0.001 nM | 0.014 nM | – | – | –
2 | Human GLP-1 (7-37) (from UniProt P01275 21-180) (ligand) | – | – | 0.001 nM | – | – | –
3 | Y[Aib]QGTFTSDYSI[αMeL]KDKKAQ[Aib]AFIEYLLKGGPSSGAPPPS-NH2 (linker 14-17 via Ida, Lys, Lys, γGlu, C20 diacid; also: further groups not given here) [Example 41] | – | – | – | 0.003 nM | 0.0003 nM | 0.015 nM
4 | Y[Aib]QGTFTSDYSI[αMeL]KDKKAQ[Aib]AFIEYLLKGGPSSGAPPPS-NH2 (bridge 14-17; not fully specified (bridges); also: stapled body (lipidated) structure only in drawing chem0263) [Example 54] | – | – | – | 0.002 nM | 0.0004 nM | 0.02 nM
5 | Y[Aib]QGTFTSDYSI[αMeL]KDKKAQ[Aib]AFIQYLLEGGPSSGAPPPS-NH2 (bridge 14-17; not fully specified (bridges); also: stapled body (lipidated) structure only in drawing chem0245) [Example 42] | – | – | – | 0.007 nM | 0.0005 nM | 0.025 nM
6 | Y[Aib]QGTFTSDYSI[αMeL]KDKKAQ[Aib]AFIEYLLEGGPSSGAPPPS-NH2 (linker 14-17 via (2-2-oxoethyl)‑glycine, AEEA, Lys, γGlu, C20 diacid) [Example 52] | – | – | – | 0.003 nM | 0.0001 nM | 0.025 nM
7 | Y[Aib]QGTFTSDYSI[αMeL]KDKKAQ[Aib]AFIEYLLEGGPSSGAPPPS-NH2 (bridge 14-17; not fully specified (bridges); also: stapled body (lipidated) structure only in drawing chem0251) [Example 45] | – | – | – | 0.005 nM | 0.0001 nM | 0.029 nM
8 | Y[Aib]QGT[αMeF]TSDYSI[αMeL]KDKKAQ[Aib]AFIEYLLKGGPSSGAPPPS-NH2 (bridge 14-17; not fully specified (bridges); also: stapled body (lipidated) structure only in drawing chem0260) [Example 51] | – | – | – | 0.001 nM | 0.0002 nM | 0.025 nM
